Changes are numbered by the printed parent chain. Numbers in names are those of the source.
B1: hIgG1 M252Y/V308P/N434Y, O4 VH with Ab6 light chain (antibody)
heavy: QVQLRQSGPGLVQPSQSLSITCTVSGFSLTSYGVHWFRQSPGKGLEWLGVIWSGGSTDYNAAFISRLSISKDNSKSQVFFKMNSLQANDTAIYYCARNRGRYNYYAMDYWGQGTSVTVSSASTKGPSVFPLAPSSKSTSGGTAALGCLVKDYFPEPVTVSWNSGALTSGVHTFPAVLQSSGLYSLSSVVTVPSSSLGTQTYICNVNHKPSNTKVDKKVEPKSCDKTHTCPPCPAPELLGGPSVFLFPPKPKDTLYISRTPEVTCVVVDVSHEDPEVKFNWYVDGVEVHNAKTKPREEQYNSTYRVVSVLTPLHQDWLNGKEYKCKVSNKALPAPIEKTISKAKGQPREPQVYTLPPSRDELTKNQVSLTCLVKGFYPSDIAVEWESNGQPENNYKTTPPVLDSDGSFFLYSKLTVDKSRWQQGNVFSCSVMHEALHYHYTQKSLSLSPG
light: not shown
notes: hIgG1
B2: hIgG1 M252Y/T256V/V308P/N434W, O4 VH with Ab6 light chain (antibody)
heavy: B1 heavy with T259V, Y437W
light: not shown
notes: hIgG1
B3: hIgG1 M252Y/T256Y/V308P/N434W, O4 VH with Ab6 light chain (antibody)
heavy: B1 heavy with T259Y, Y437W
light: not shown
notes: hIgG1
B4: hIgG1 M252Y/T256D/V308P/N434W, O4 VH with Ab6 light chain (antibody)
heavy: B1 heavy with T259D, Y437W
light: not shown
notes: hIgG1
B5: hIgG1 M252Y/T256P/V308P/N434W, O4 VH with Ab6 light chain (antibody)
heavy: B1 heavy with T259P, Y437W
light: not shown
notes: hIgG1
B6: hIgG1 M252Y/T256A/V308P/N434W, O4 VH with Ab6 light chain (antibody)
heavy: B1 heavy with T259A, Y437W
light: not shown
notes: hIgG1
B7: hIgG1 P257A/V308P/M428L/N434Y, O4 VH with Ab6 light chain (antibody)
heavy: B1 heavy with Y255M, P260A, M431L
light: not shown
notes: hIgG1
B8: hIgG1 M252Y/T256L/V308P/N434W, O4 VH with Ab6 light chain (antibody)
heavy: B1 heavy with T259L, Y437W
light: not shown
notes: hIgG1
B9: hIgG1 M252Y/T256V/V308P/N434F, O4 VH with Ab6 light chain (antibody)
heavy: B1 heavy with T259V, Y437F
light: not shown
notes: hIgG1
B10: hIgG1 M252Y/T256M/V308P/N434W, O4 VH with Ab6 light chain (antibody)
heavy: B1 heavy with T259M, Y437W
light: not shown
notes: hIgG1
B11: hIgG1 M252Y/T256S/V308P/N434W, O4 VH with Ab6 light chain (antibody)
heavy: B1 heavy with T259S, Y437W
light: not shown
notes: hIgG1
B12: hIgG1 M252Y/V308P/N434W, O4 VH with Ab6 light chain (antibody)
heavy: B1 heavy with Y437W
light: not shown
notes: hIgG1
B13: hIgG1 M252Y/T256H/V308P/N434W, O4 VH with Ab6 light chain (antibody)
heavy: B1 heavy with T259H, Y437W
light: not shown
notes: hIgG1
B14: hIgG1 M252Y/T256E/V308P/N434W, O4 VH with Ab6 light chain (antibody)
heavy: B1 heavy with T259E, Y437W
light: not shown
notes: hIgG1
B15: hIgG1 M252Y/S254T/T256E/N434W, O4 VH with Ab6 light chain (antibody)
heavy: B1 heavy with S257T, T259E, P311V, Y437W
light: not shown
notes: hIgG1
B16: hIgG1 M252Y/T256R/V308P/N434W, O4 VH with Ab6 light chain (antibody)
heavy: B1 heavy with T259R, Y437W
light: not shown
notes: hIgG1

Biological target: T1, human FcRn protein (human, UniProt P55899 24-297, limits assumed)
T1 construct: source and construct not described; also called hFcRn; FCGRT
T1 sequence (P55899 24-297 limits assumed, chain 1 of 2): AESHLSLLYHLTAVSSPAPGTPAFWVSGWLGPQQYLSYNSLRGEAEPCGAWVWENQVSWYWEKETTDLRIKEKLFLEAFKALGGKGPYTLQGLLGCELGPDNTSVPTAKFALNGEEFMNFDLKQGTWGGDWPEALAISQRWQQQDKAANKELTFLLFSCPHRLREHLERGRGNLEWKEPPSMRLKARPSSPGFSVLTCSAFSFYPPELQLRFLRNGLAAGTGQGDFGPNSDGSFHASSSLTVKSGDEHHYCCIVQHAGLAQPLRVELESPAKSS
T1 sequence (chain, as listed by the source limits assumed, chain 2 of 2): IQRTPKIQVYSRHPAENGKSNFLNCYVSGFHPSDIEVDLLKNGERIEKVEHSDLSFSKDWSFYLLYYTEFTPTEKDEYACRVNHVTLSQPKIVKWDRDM
Assay: SPR, Ab on Protein L chip, hFcRn in flow, pH 7.4
Description: (§1) The interaction between human immunoglobulin proteins and FcRn is known to be affected by the pH of their environment solution. To test whether this pH-dependent interaction correlates with the quantity of antibody variants in the brain parenchyma after in vivo administration, the affinity of certain variants towards FcRn were screened at pH 6.0 and pH 7.4 on a Biacore T200 system (GE Healthcare). All experiments were conducted at 25′ C. Antibodies were expressed and purified using the Expi293 expression system as described in Example 1. Cells were transfected with a heavy chain comprising the variable region of the 04 antibody used in Example 2 [SEQ ID NO: 1] fused to a heavy chain region bearing the indicated substitution in Table 11 and a light chain from Ab6 [SEQ TD NO: 24]. Although the CH sequences listed in Table 11 include the terminal lysine (K447), this terminal lysine was truncated during the cloning process for each of these variants for the purposes of this experiment. Antibody proteins were captured at a flow rate of 10 μL/min on a Protein L chip to a surface density of approximately 100 RU. Experiments conducted at pH 7.4 were conducted in PBST (1.06 mMKH2PO4, 155.17 mM7NaCl, 2.97 mM 4Na2PO4-7H2O, and 0.005 Tween-20). […] The antibody-FcRn complex was allowed to dissociate for 20 s before the chip was regenerated with 10 mM glycine pH 1.7. On-rates (ka) and off-rates (kd) were estimated by the best fit to a one-to-one Langmuir binding model by simultaneous fitting of the association and dissociation sensograms. The dissociation constant (KD) for FcRn binding was then calculated as the ratio of the off rate to the on rate (kd/ka).

Binder | Kd [nM] | koff [s⁻¹] | kon [M⁻¹ s⁻¹]
B1 | 10300 | 0.748 | 72600
B2 | 68.7 | 0.0327 | 476000
B3 | 202 | 0.08 | 395000
B4 | 52.1 | 0.0338 | 650000
B5 | 49.8 | 0.02 | 442000
B6 | 90.1 | 0.08 | 893000
B7 | 239 | 0.0545 | 228000
B8 | 137 | 0.0868 | 634000
B9 | 202 | 0.2 | 977000
B10 | 37.2 | 0.28 | 7.62e+06
B11 | 84.5 | 0.0564 | 668000
B12 | 730000 | 3.11 | 4260
B13 | 103 | 0.19 | 1.82e+06
B14 | 70.2 | 0.0341 | 486000

Biological target: T1, human FcRn protein
Assay: SPR, Ab on Protein L chip, hFcRn in flow, pH 6.0
Description: as §1

Binder | Kd [nM] | koff [s⁻¹] | kon [M⁻¹ s⁻¹]
B15 | 4.38 | 0.00655 | 1.49e+06
B1 | 1.51 | 0.00242 | 1.61e+06
B2 | 1.87 | 0.0024 | 1.29e+06
B16 | 0.433 | 0.001 | 2.31e+06
B3 | 0.754 | 0.00112 | 1.49e+06
B4 | 1.19 | 0.00211 | 1.77e+06
B5 | 0.0414 | 3.83e-05 | 927000
B6 | 0.426 | 0.000815 | 1.91e+06
B7 | 4.26 | 0.00706 | 1.66e+06
B8 | 2.85 | 0.00351 | 1.23e+06
B9 | 1.25 | 0.00139 | 1.11e+06
B10 | 0.828 | 0.00125 | 1.51e+06
B11 | 1.23 | 0.00186 | 1.52e+06
B12 | 0.767 | 0.00124 | 1.62e+06
B13 | 2.2 | 0.00228 | 1.04e+06
B14 | 0.744 | 0.00128 | 1.71e+06

From patent US20240150447A1 (CEPHALON, published 2024)
